The values below come from US20260217835A1 (published 2026).

Data set [1] concerns the molecule itself. Kind of data set: SEC peak area ratio after coexpression of full-length heavy chain, light chain and unmodified Fc fragment (SEQ ID NO 62) in Expi293F, Protein A purified.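 Also: SEC chromatograms monitored by UV absorbance at 215 nm, with species quantified as peak area ratios.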
The target of data set [2] is T1, Fc fragment below the hinge region containing no modification (SEQ ID NO: 62) (human, UniProt P01857 104-328 = IgG part).
T1 construct: Unmodified human IgG1 Fc fragment coexpressed with the full-length heavy chain and the light chain; two chains in the Fc homodimer, one chain in the heteromultimer; also called WT-Fc fragment
The data set can be described thus: SEC area ratio of heteromultimer (%) after coexpression of full-length heavy chain, light chain and Fc fragment in Expi293F.

B1: Antibody with full-length human IgG1 heavy chain carrying T366Y/L368V/Y407A (SEQ ID NO: 473) and light chain SEQ ID NO: 61 (antibody)
heavy: QVQLQESGPGLVRPSQTLSLTCTVSGYSITSDHAWSWVRQPPGRGLEWIGYISYSGITTYNPSLKSRVTMLRDTSKNQFSLRLSSVTAADTAVYYCARSLARTTAMDYWGQGSLVTVSSASTKGPSVFPLAPSSKSTSGGTAALGCLVKDYFPEPVTVSWNSGALTSGVHTFPAVLQSSGLYSLSSVVTVPSSSLGTQTYICNVNHKPSNTKVDKRVEPKSCDKTHTCPPCPAPELLGGPSVFLFPPKPKDTLMISRTPEVTCVVVDVSHEDPEVKFNWYVDGVEVHNAKTKPREEQYNSTYRVVSVLTVLHQDWLNGKEYKCKVSNKALPAPIEKTISKAKGQPREPQVYTLPPSREEMTKNQVSLYCVVKGFYPSDIAVEWESNGQPENNYKTTPPVLDSDGSFFLASKLTVDKSRWQQGNVFSCSVMHEALHNHYTQKSLSLSP
light: not shown
notes: also called Sample No. 1063
Consider B1, for which the “Homo full-length heavy chain (%)” value in data set [1] came to 66.5%. Further, the binding result in data set [2] was “no binding”.
